Results as given in paper PMC2082129, “A Switch in the Mechanism of Communication between the Two DNA-Binding Sites in the SfiI Restriction Endonuclease” (Journal of Molecular Biology, 2007).
Positions count from the first letter of the chain named. Names may count otherwise.

B1: SfiI restriction endonuclease, wild type (enzyme)
chain: MHQDYRELSLDELESVEKQTLRTIVQALQQYSKEAKSIFETTAADSSGEVIVLAEDITQYALEVAETYPINRRFAGFIDYKRVRWLPSPHGLLPQVLLVDAKASTEKNRDTLQRSQLPMDAEFRNTSSGEVVTMEAGVIPHLMLQSANDGVLPAVTTSIFVHFYYRELKDVEGRYRELKSIYVLSLPHARLKQRYNPDPDTSFFGAGKHSPARGEVARIRVYFDRLKEACPWRLQELHYSADSEYTQPRWRDLNDAGHEVTKEFLFLER
notes: SfiI restriction endonuclease, expressed from the SfiI restriction gene on pRRS-SfiIR+; tetramer of identical subunits, Mr of the tetramer printed as 124,176; The plasmid carries the SfiI restriction gene, and the printed tetramer Mr of 124,176 fits four whole subunits; In the AUC the protein stood with the 21-bp DNA duplex HEX-21 and Ca2+; also called wt SfiI; SfiI endonuclease; source: E. coli …
B2: SfiI restriction endonuclease, Y68F mutant (enzyme)
chain: B1 chain with Y68F
notes: SfiI restriction endonuclease with Tyr68 replaced by Phe (QuikChange mutagenesis of pRRS-SfiIR+); Same construct as m1 apart from Y68F; also called Y68F protein; source: E. coli ER2238 (transformed with pSYX33-SfiIM+ and a derivative of pRRS-SfiIR+), purified as described previously

Biological target: the molecule itself
Test: AUC; sedimentation equilibrium at 20 °C; 2.5 μM enzyme (tetramer) with 2.5 μM HEX-21 DNA duplex; AUC buffer (10 mM Tris-HCl, 50 mM NaCl, 10 mM CaCl2, 1 mM DTT, pH 7.9); absorbance of the HEX label at 539 nm; 10,000, 15,000 and 25,000 rpm, global fit to a single species; oligomeric state of the protein bound to DNA

Row | Protein | stoichiometry N
1 | B1 | 4
2 | B2 | 4
